From FireProtDB (doi:10.1021/bi702211j)
“And” between values parts separate entries of the source, which are not always exact repeats. Equal entries are not always repeated.

Conditions: Saccharomyces cerevisiae (strain ATCC 204508 / S288c), pH 7.5, 20 °C, Urea, HEPES 10 mM, NaCl 200 mM, reversible: Yes, whole UniProt chain shown

B1: Eukaryotic translation initiation factor 2 subunit alpha wild type, P20459 (protein)
chain: MSTSHCRFYENKYPEIDDIVMVNVQQIAEMGAYVKLLEYDNIEGMILLSELSRRRIRSIQKLIRVGKNDVAVVLRVDKEKGYIDLSKRRVSSEDIIKCEEKYQKSKTVHSILRYCAEKFQIPLEELYKTIAWPLSRKFGHAYEAFKLSIIDETVWEGIEPPSKDVLDELKNYISKRLTPQAVKIRADVEVSCFSYEGIDAIKDALKSAEDMSTEQMQVKVKLVAAPLYVLTTQALDKQKGIEQLESAIEKITEVITKYGGVCNITMPPKAVTATEDAELQALLESKELDNRSDSEDDEDESDDE
CD
  denaturant m value: 0.88 kcal/mol/M and 0.98 kcal/mol/M
  unfolding free energy: 2.45 kcal/mol and 2.95 kcal/mol and 4.61 kcal/mol
Fluorescence
  denaturant m value: 1.84 kcal/mol/M and 2.19 kcal/mol/M
  unfolding free energy: 5.17 kcal/mol and 6.66 kcal/mol and 5.45 kcal/mol
